{"source": "the nanobody polyreactivity screen of Harvey et al. (2022)", "assay": "yeast display, Sf9 membrane polyspecificity reagent, FACS + sequencing; frameworks hold sequencing errors", "in_short": "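A synthetic nanobody library was expressed on Saccharomyces cerevisiae BJ5465 by galactose induction for 36–48 hours. The library was stained for 1 hour at 4 °C with 10% biotinylated, detergent-solubilized Sf9 membrane reagent and enriched with streptavidin microbeads before FACS. Low and high (top ~1%) gates were set on anti-HA fluorescence for expression and streptavidin fluorescence for reagent binding, and each polyreactivity label reflects the gate of origin.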", "data": [{"sequence": "QVQLVESGGGLVQAGGSLRLSCAASGFTFYVYAMGWYRQARGQERELVATISRGGSTNYADSVKGRFTISRDNAKNTVYLQMNSLKPEDTAVYYCAARKYHYFPSRYGYWGQGTQVTVSS", "values": [{"measurement": "polyreactivity (PSR sort gate)", "value": "high polyreactivity"}]}, {"sequence": "QVQLVESGGGLVQAGGSLRLSCAASGRTCYSNAMGWYRQAPGKERELVAAITRGASTKYADSVKGRFTISRDNAKNTVYLQMNSLKPEDTAVYYCATARYPRYIYDYWGQGTQVTVSS", "values": [{"measurement": "polyreactivity (PSR sort gate)", "value": "low polyreactivity"}]}, {"sequence": "QVQLVESGGGLVQAGGSLRLSCSASGSIFGGYAMGWYRQAPGKEREFVAAISRRGASTYYADSVKGRYTISRDNAKNTVYLQMNSLKPEDTAVYYCNARAYGRIDGLSATYGYWGQGTQVTVSS", "values": [{"measurement": "polyreactivity (PSR sort gate)", "value": "high polyreactivity"}]}, {"sequence": "QVQLVESGGGLVQAGGSLRLSCAASGIIFWYYAMGWYRQAPGKERELVAAISGSGGRTYYADSVKGRFTISRDNAKNTVYLQMNSLKPEDTAVYYCNALRAAFYHRARELDYWGQGTQVTVSS", "values": [{"measurement": "polyreactivity (PSR sort gate)", "value": "high polyreactivity"}]}, {"sequence": "QVQHVESGGGLVQAVGSLRLSCAASGRIVYYVMGWYRQAPGKERELVAAISTRGGSTYYADSVKGRFTISLDNAKNTVYLQMNSLTPEDTAVYYCAASSLLTRYNSWGQGTQVTVSS", "values": [{"measurement": "polyreactivity (PSR sort gate)", "value": "high polyreactivity"}]}, {"sequence": "QVQLVESGGGLVQAGGSHRLSCAASGIIYYYNTMGWYRQAPGKEREFVAAISNSGGRTYYADSVKGRFTISRDNAKNTVYLQMNSLKPEDTAVYYCAARYVLFSNRFDYWGQGTQVTVSS", "values": [{"measurement": "polyreactivity (PSR sort gate)", "value": "high polyreactivity"}]}, {"sequence": "QVQHVESGGGLVQAGGSLRLCCAATGNTFGINAMGWYRQAPGKERELDASITGSAGSTYYADSVKGRFTISRDNAKNTVYLQMNSLKPEDTAVYYCNAGARGVMSQPWVIKYYYWGQGTQGTVSS", "values": [{"measurement": "polyreactivity (PSR sort gate)", "value": "high polyreactivity"}]}, {"sequence": "QVQLVESGGGLVQAGGSLRLSCAASGSTFGTNAMGWYRQAPGKERELVAAITYSGGRTYYADSVKGRFTISRDNAKNTVYLQMNSLKPEDTAVYYCAATFGFFYYQYEYWGLGTQVTVSS", "values": [{"measurement": "polyreactivity (PSR sort gate)", "value": "low polyreactivity"}]}, {"sequence": "QVQLVESGGGLVQAGGSLRLSCAASGFTFYKYAMGWYRQAPGKERELVAAISRRGTSTYYADSVKGRFTISRDNAKNTVYLQMNSLKPEDTAVYYCAAEIWSYPAYDYWGQGTQVTVSS", "values": [{"measurement": "polyreactivity (PSR sort gate)", "value": "high polyreactivity"}]}, {"sequence": "QVQLVESGGGLVQAGGSLRLSCAASGRTISYAMGWYRQAPGKEREMVAAIRYRGGSTYYADSVKGRFTISRDNAKNTVYLQMNSLKPEDTAVYYCAAQDSYTPPILFRRGYLRYDYWGQGTQVTVSS", "values": [{"measurement": "polyreactivity (PSR sort gate)", "value": "low polyreactivity"}]}, {"sequence": "QVQLVESGGGLVQAGGSLRLSCAASGSTFGRNARGWYRQAPGKERELVAAITASGGTTYYADSVKGRFTISRDNAKNTVYLQMNSLKPEDTAVYYCNVSYLVYRWNFGWSMDFWGQGTQLTVSS", "values": [{"measurement": "polyreactivity (PSR sort gate)", "value": "low polyreactivity"}]}, {"sequence": "QVQLVESGGGLVQAGGSLRLSCAAYASTLANYALGWYRQSPGKERELVAAINSGGSTYYADSVKGRFTISRDNAKNTVYLQMNSLKPEDTAVYYCAARYASPRYKSKMDYWGQGTQVTVSS", "values": [{"measurement": "polyreactivity (PSR sort gate)", "value": "high polyreactivity"}]}, {"sequence": "QVQLVESGAGLVQAGGSLRLCCAASGSIFAPYAMGWYRQAPGKERELVAAISRSGGSTYYADSVKGRFTISRDNAKNTVYLQMNSLKPEDTAVYYCADRNGLRQYRLDYWGQGTQVTVSS", "values": [{"measurement": "polyreactivity (PSR sort gate)", "value": "high polyreactivity"}]}, {"sequence": "QVQLVESGGGLVLAGGSLRLSCASSGRTFPSYAKGWYRQAPGKERELVAAITRGGSTNYADSVKGRFTISRDNAKNTVYLQMNSLKPEDTAVYYCAAARWRWQLARDDYWGQGTQVTVSS", "values": [{"measurement": "polyreactivity (PSR sort gate)", "value": "high polyreactivity"}]}, {"sequence": "QVQLVESGGGLVQAGGSLRLSCAASGFIFWSNAMGWYRQAPGKERELVAAINSSGGRTYYADSVKGRFTISRDNAKNTVYLQMNSLKPEDTAVYYCAARLHSPRYRYDYWGQGTQVTVSS", "values": [{"measurement": "polyreactivity (PSR sort gate)", "value": "high polyreactivity"}]}, {"sequence": "QVQLVESGGGLVQAGGSLRLSCAASGSIFLYYAMGWYRQAPGKERELVAGIRRGGRTNYADSVKGRFTISRDNAKNTVYLQMNSLKPEDTAVYYCAKGGYWGQGTQVTVSS", "values": [{"measurement": "polyreactivity (PSR sort gate)", "value": "high polyreactivity"}]}, {"sequence": "QVQLVESGGGLVQAGGSLRLSCAASGFTFASYVMGWYRQAPGKERELVASISWSGGRTYYADSVKGRFTISRDNAKNTVYLQMNSLKPEDTAVYYCNVLVTRYSPWFLYNYWGLGTQVTVSS", "values": [{"measurement": "polyreactivity (PSR sort gate)", "value": "high polyreactivity"}]}, {"sequence": "QVQLVESGGGLVQAGGSLRLSCAASGRTFYWYTMGWYRQAPGKERELVAAISIGGITSYADSVKGRFTISRDNAKNTVYLQMNSLKPEDTAVYYCAAESACSRPYFNSIHRRDSWGQGTQVTVSS", "values": [{"measurement": "polyreactivity (PSR sort gate)", "value": "low polyreactivity"}]}, {"sequence": "RVQLVESGGGLVQAGGSLRLSCAASGFTIQRYAMGWYRQAPGKVRELVAGITGGGNTKYADSVKGRFTISRDNAKNTVYLQMNSLKPEDTAVYYCAARGGVPRGKFGYDYWGQGTQVTVSS", "values": [{"measurement": "polyreactivity (PSR sort gate)", "value": "high polyreactivity"}]}, {"sequence": "QVQLVESGGGLVQAGGILLLSCAASRRIFGVYAMGWYIQAPGKERELVATIRSSGTRKNYADSLKGRFTISRDNAKNTVYLQLNSLKPEDTAVYYCAAGGRPYKLDFTRSDYWGHGTQVTVSS", "values": [{"measurement": "polyreactivity (PSR sort gate)", "value": "low polyreactivity"}]}, {"sequence": "QVQLVESGGGLVQAGGSLRLSCAASGRTFYKYAMGWYRQAPGKERELVAAISRRGGSTYYADSVKGRFTISRDNAKNTVYLQMNSLKPEDTAVYDCAADPDTKGFYVYRLVRVRYGYWGQGTQVTVSS", "values": [{"measurement": "polyreactivity (PSR sort gate)", "value": "high polyreactivity"}]}, {"sequence": "QVQLVESGGGLVQAGGSLRLSCAASGRIFSPYAMGWYRQAPGKERELVAAITSSGGSSYYADSVKGRFTISRDYAKNTVYLQMNSLKPEDTAVYYCNARRGRYTPSVNYWGQGTQVTVSS", "values": [{"measurement": "polyreactivity (PSR sort gate)", "value": "high polyreactivity"}]}, {"sequence": "QGQLVESGGGLVQAGGSLRLSCAASGYTFYANAMGWYRQAPGNEREFVASITWSGGSTYYADSVKGRFTLSRDNAKNTVYLQMNSLKPEDTAVSDCAAESWFKYDYWGQGTQVTVSS", "values": [{"measurement": "polyreactivity (PSR sort gate)", "value": "low polyreactivity"}]}, {"sequence": "QVQLVESGGGLVQAGGSLRLSCAASGRTFGKYAMGWYRQAPGKERELVATITRTARTNYADSVKGRFTNSRDNAKNTVYFQMNSLKPEDTAVYYCAKGWPAIYGTYDYWGQGTQVTVSS", "values": [{"measurement": "polyreactivity (PSR sort gate)", "value": "high polyreactivity"}]}, {"sequence": "QVQLVESGGGLVQAGGSLRLSCAASGRTFYYAMGWYRQAPGKERELVAAISWSGGRTYYADSVKARFTISRDNAKNTVYLQMNSLKPEDTAVYFCAAIYYYSPRDGFIYWGQGTQVTVSS", "values": [{"measurement": "polyreactivity (PSR sort gate)", "value": "high polyreactivity"}]}, {"sequence": "QVQLVESGGGLVQAGGSLRLSCAASGFTFAYYTMGWYRQAPGKERELVAAISWSGSSTYYADSVKGRFTISRDNAKNTVYLQMNSLKPEDTAVYYCAAKGWYVQHFKRGLYNYWGQGTQVTVSS", "values": [{"measurement": "polyreactivity (PSR sort gate)", "value": "high polyreactivity"}]}, {"sequence": "QVQLVESGGGLVQAGGSLRLSCAASGRTFCVYVMGWYRQAPGKERQLVAAIDDSGGSTYYADSVKGRFTISRDNAKNTVYLQMNSLKPEDTAVYYCAKTKTQYLTSEIRFDYWGQGTQVTVSS", "values": [{"measurement": "polyreactivity (PSR sort gate)", "value": "low polyreactivity"}]}, {"sequence": "QVQLVESGGGLDQAGGSLRLSCAASGRIFNKYAMGWYRQAPGKERELVAAISSGASTYYADSVKGRFTISRDNAKNTVYLQMNSLKPEDTAVYYCAAGGSKGGNYWGQGTQVTVSS", "values": [{"measurement": "polyreactivity (PSR sort gate)", "value": "high polyreactivity"}]}, {"sequence": "QVQLVESGGGLVQAGGSLRLSCAATGITFIVYVMGWYRQAPGKERELFATISYDDSTYADSVKGSFTISRDNAKNTVYLQMNSLKPEDTAVYYDYWGQGTQVTVSS", "values": [{"measurement": "polyreactivity (PSR sort gate)", "value": "low polyreactivity"}]}, {"sequence": "QVQLVESGGGLVQAGGSLRLSCAASGSTFYGNAMGWYRQAPGKERELVATISWSGGSTYYADSVKGRFTISRDNAKNTVYLQMNSLKPEDTAVYYCNAEITTKSLVTRYSWYGGDYWGQGTQVTVSS", "values": [{"measurement": "polyreactivity (PSR sort gate)", "value": "low polyreactivity"}]}, {"sequence": "QVQLVESGGGLVQAGGSLRLTCAASGSTFSDYAMGWNRQAHGKERELVAGITGGGGTYYADSVKGRFTISRDNAKNTVYLQMNSLKPEDTALYYCAAGRRHGLGYWGQGTLVTVSS", "values": [{"measurement": "polyreactivity (PSR sort gate)", "value": "low polyreactivity"}]}, {"sequence": "QVQLVESGGGLVQAGGSLRIICAATGSIFYWNAMGWYRQSPGKEREFVASIRKSGGSTNYADSVKGRFTISRDNAKNTVYLQMTSQKPEDTAVYYCAAYSYYRGTFYDYWGQGTQVTVSS", "values": [{"measurement": "polyreactivity (PSR sort gate)", "value": "low polyreactivity"}]}]}
